Laboratory results reported in patent US20120288510A1 (UNIVERSITY OF MASSACHUSETTS, published 2012).
Like-named read-outs stand apart in the source and are kept apart here. No end group written: not given here.

Assays:
[1] = target: E2-G bacterially expressed fusion protein with the E2 412-423 sequence of a genotype 5 strain (genba (Hepatitis C virus genotype 5)); experiment: ELISA, fusion protein coated on plate
Q412A = target: T1, Q412A (not fully specified); experiment: ELISA on coated bacterial fusion protein; two-fold antibody dilutions; goat anti-human AP, PNPP
T1 construct: alanine scanning mutant of E2-G; also called pET32-E2-G-Q412A; not shown: N-terminal thioredoxin partner and vector-encoded stretch of pET32
T1 chain: ALINTNGSWHINHHHHHH

L413A = experiment: as above
I414A = target: T2, I414A (not fully specified); experiment: as above
T2 construct: alanine scanning mutant of E2-G; also called pET32-E2-G-I414A (printed in the text as pET32-E2-G-1414A); not shown: N-terminal thioredoxin partner and vector-encoded stretch of pET32
T2 chain: QLANTNGSWHINHHHHHH

N415A = target: T3, N415A (not fully specified); experiment: as above
T3 construct: alanine scanning mutant of E2-G; also called pET32-E2-G-N415A; not shown: N-terminal thioredoxin partner and vector-encoded stretch of pET32
T3 chain: QLIATNGSWHINHHHHHH

T416A = target: T4, T416A; experiment: as above
T4 construct: alanine scanning mutant of E2-G; also called pET32-E2-G-T416A; not shown: N-terminal thioredoxin partner and vector-encoded stretch of pET32

N417A = target: T5, N417A; experiment: as above
T5 construct: alanine scanning mutant of E2-G; also called pET32-E2-G-N417A

G418A = target: T6, G418A; experiment: as above
T6 construct: alanine scanning mutant of E2-G; also called pET32-E2-G-G418A

S419A = target: T7, S419A; experiment: as above
T7 construct: alanine scanning mutant of E2-G; also called pET32-E2-G-S419A

H421A = target: T8, H421A; experiment: as above
T8 construct: alanine scanning mutant of E2-G; also called pET32-E2-G-H421A

I422A = target: T9, I422A; experiment: as above
T9 construct: alanine scanning mutant of E2-G; also called pET32-E2-G-I422A (printed in the text as pET32-E2-G-1422A)

N423A = target: T10, N423A; experiment: as above
T10 construct: alanine scanning mutant of E2-G; also called pET32-E2-G-N423A

[2] = target: T11, E2-G bacterially expressed thioredoxin fusion protein (pET32-E2-G, E2 amino acids 412 to 423) (Hepatitis C virus genotype 1a, not fully specified (N-terminus); also: N-terminal thioredoxin fusion partner); experiment: as above
T11 construct: also called WT; not shown: thioredoxin, N-terminal fusion partner of the pET32 vector; C-terminal myc and 6 histidine tags
T11 chain: QLINTNGSWHIN-{myc tag-His6}

E2-D = experiment: as above
Chain of E2-D (P27958 436-463, tags left off): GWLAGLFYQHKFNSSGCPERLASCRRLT

[3] = target: T11, E2-G bacterially expressed thioredoxin …; experiment: as above
[4] = target: T11, E2-G bacterially expressed thioredoxin …; experiment: as above
[5] = target: T12, E2-G bacterially expressed fusion protein with the E2 412-423 sequence of genotype 2b (Hepatitis C virus genotype 2b, also: vector linker residues not given here); experiment: as above
T12 construct: not shown: thioredoxin, N-terminal fusion partner of the pET32 vector; C-terminal myc and 6 histidine tags
T12 chain: thioredoxin-HLVNSNGSWHIN-{myc tag-His6 tag}

[6] = target: T13, E2-G bacterially expressed fusion protein with the E2 412-423 sequence of genotype 3a (Hepatitis C virus genotype 3a, also: vector linker residues not given here); experiment: as above
T13 construct: not shown: thioredoxin, N-terminal fusion partner of the pET32 vector; C-terminal myc and 6 histidine tags
T13 chain: thioredoxin-QLVNSSGSWHIN-{myc tag-His6 tag}

[7] = target: T14, E2-G bacterially expressed fusion protein with the E2 412-423 sequence of genotype 4a (Hepatitis C virus genotype 4a, also: vector linker residues not given here); experiment: as above
T14 construct: not shown: thioredoxin, N-terminal fusion partner of the pET32 vector; C-terminal myc and 6 histidine tags
T14 chain: thioredoxin-QLINSNGSWHIN-{myc tag-His6 tag}

[8] = target: T15, E2-G bacterially expressed fusion protein with the E2 412-423 sequence of genotype 5a (Hepatitis C virus genotype 5a, not fully specified (N-terminus); also: N-terminal thioredoxin fusion partner); experiment: as above
T15 construct: not shown: thioredoxin, N-terminal fusion partner of the pET32 vector; C-terminal myc and 6 histidine tags
T15 chain: QFVNTNGSWHIN-{myc tag-His6}

[9] = target: T16, E2-G bacterially expressed fusion protein with the E2 412-423 sequence of genotype 6g (Hepatitis C virus genotype 6g, not fully specified (N-terminus); also: N-terminal thioredoxin fusion partner); experiment: as above
T16 construct: not shown: thioredoxin, N-terminal fusion partner of the pET32 vector; C-terminal myc and 6 histidine tags
T16 chain: QLIKTNGSWHIN-{myc tag-His6}

[10] = target: T17, E2-G bacterially expressed fusion protein with the E2 412-423 sequence of genotype 6k (Hepatitis C virus genotype 6k, not fully specified (N-terminus); also: N-terminal thioredoxin fusion partner); experiment: as above
T17 construct: not shown: thioredoxin, N-terminal fusion partner of the pET32 vector; C-terminal myc and 6 histidine tags
T17 chain: QLINSNGSWHVN-{myc tag-His6}

[11] = target: T18, soluble HCV genotype 1b E2-661 (pCDNA-1b-E2-661) (Hepatitis C virus genotype 1b); experiment: ELISA on plate coated with 2 µg/ml antigen; two-fold antibody dilutions; goat anti-human AP, PNPP
T18 construct: range 364-661

[12] = target: T11, E2-G bacterially expressed thioredoxin …; experiment: Biacore SPR; antibody captured on goat anti-human IgG Fc, E2-G flowed over at varying concentrations; BIAevaluation fit

B1: human antibody 95-2 (antibody, V domains shown)
VH: QVQLVESGGGVVQPGRSLRLSCAASGFTFSSYGMHWVRQAPGKGLEWVAVIWFDGNNQYYADSVKGRFTISRDNSKNTLYLQMNSLRAEDTAVYYCARDIFTVVRGFFIYFDYWGQGTLVTVSS
VL: EIVLTQSPATLSLSPGERATLSCRASQSVGSYLAWYQQKPGQAPRLLIYDASNRATGIPARFSGSGSGTDFTLTISSLEPEDFAVYYCQQRSNWVTFGQGTRLEIK
notes: also called clone 95-2
For B1, the “fold reduction of recognition (reference not named)” value [1] was 10 fold, the “EC50 (read off the curve)” value (Q412A) was about 0.02 µg/mL and the binding result (L413A) was “binds”. For the same binder, the “EC50 (read off the curve)” value (I414A) was about 0.02 µg/mL, the “EC50 (read off the curve)” value (N415A) was about 0.02 µg/mL and the “EC50 (read off the curve)” value (T416A) was about 0.02 µg/mL. For the same binder, the “EC50 (read off the curve)” value (N417A) was about 0.02 µg/mL, the “EC50 (read off the curve)” value (G418A) was about 0.03 µg/mL and the “EC50 (read off the curve)” value (S419A) was about 0.02 µg/mL. For the same binder, the “EC50 (read off the curve)” value (H421A) was about 0.02 µg/mL, the “EC50 (read off the curve)” value (I422A) was about 0.02 µg/mL and the “EC50 (read off the curve)” value (N423A) was about 0.02 µg/mL. For the same binder, the “EC50 (read off the curve)” value [2] was about 0.02 µg/mL, the binding result (E2-D) was “no binding (tested: 1 µg/ml)” and the “EC50 (read off the curve)” value [3] was about 0.04 µg/mL. For the same binder, the “EC50 (read off the curve)” value [4] was about 0.02 µg/mL, the “EC50 (read off the curve)” value [5] was about 0.02 µg/mL and the “EC50 (read off the curve)” value [6] was about 0.02 µg/mL. For the same binder, the “EC50 (read off the curve)” value [7] was about 0.02 µg/mL, the “EC50 (read off the curve)” value [8] was about 0.02 µg/mL and the “EC50 (read off the curve)” value [9] was about 0.02 µg/mL. The “EC50 (read off the curve)” value [10] was about 0.02 µg/mL, the “EC50 (read off the curve)” value [11] was about 0.1 µg/mL and the Kd [12] was 1.9 nM. The koff [12] was 0.0003 s⁻¹ and the kon [12] was 160000 M⁻¹ s⁻¹.
